The labels stand for the following.
B1: library; numbered along this chain (parent)
chain: MAAAGGARLLRAASAVLGGPAGRWLHHAGSRAGSSGLLRNRGPGGSAEASRSLSVSARARSSSEDKITVHFINRDGETLTTKGKVGDSLLDVVVENNLDIDGFGACEGTLACSTCHLIFEDHIYEKLDAITDEENDMLDLAYGLTDRSRLGCQICLTKSMDNMTVRVPETVADARQSIDVGKTS

The variants in the data set derive from B1. Description: scaled log2 fold change in cell abundance, elesclomol vs control (0 = silent mean, 1 = nonsense mean) (scaled log2 ratio); higher = higher viability under elesclomol (loss of FDX1 cuproptosis function). As to conditions: glucose 10 mM.
Setting [1] is: with ABC1 FDX1 KO, elesclomol 5 nM, 14 days.
The mark [2] stands for this setting: with HEK293T FDX1 KO, elesclomol 40 nM, 11 days.
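Further: variant abundance is its share of total variant reads in each endpoint sample, from next-generation sequencing of the integrated ORF PCR-amplified out of genomic DNA.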

MAAAGGARLLRAASAVLGGPAGRWLHHAGSRAGSSGLLRNRGPGGSAEASRSLSVSARARSSSEDKITVHFINRDGETLTTKGKVGDSLLDVVVENNLDIDGFGACEGTLACSTCHLIFEDHIYEKLDAITDEENDMLDLAYGLTDRSRLGCGICLTKSMDNMTVRVPETVADARQSIDVGKTS [Q153G]: the “scaled log2 fold change” value is 0.48 under setting [1] and -0.652 under setting [2].
The corresponding values for MAAAGGARLLRAASAVLGGPAGRWLHHAGSRAGSSGLLRNRGPGGSAEASRSLSVSARARSSSEDKITVHFINRDGETLTTKGKVGDSLLDVVVENNLDIDGFGACEGTLACSTCHLIFEDHIYEKLDAITDEENDMLDLAYGLTDRSRLGCIICLTKSMDNMTVRVPETVADARQSIDVGKTS [Q153I] are 0.0471 and -0.458.
For MAAAGGARLLRAASAVLGGPAGRWLHHAGSRAGSSGLLRNRGPGGSAEASRSLSVSARARSSSEDKITVHFINRDGETLTTKGKVGDSLLDVVVENNLDIDGFGACEGTLACSTCHLIFEDHIYEKLDAITDEENDMLDLAYGLTDRSRLGCDICLTKSMDNMTVRVPETVADARQSIDVGKTS [Q153D] the same measures were 0.674 and 0.615.
As to MAAAGGARLLRAASAVLGGPAGRWLHHAGSRAGSSGLLRNRGPGGSAEASRSLSVSARARSSSEDKITVHFINRDGETLTTKGKVGDSLLDVVVENNLDIDGFGACEGTLACSTCHLIFEDHIYEKLDAITDEENDMLDLAYGLTDRSRLGCEICLTKSMDNMTVRVPETVADARQSIDVGKTS [Q153E], the “scaled log2 fold change” value under setting [1] worked out at 0.283 and the “scaled log2 fold change” value under setting [2] was found to be 1.2.
As to MAAAGGARLLRAASAVLGGPAGRWLHHAGSRAGSSGLLRNRGPGGSAEASRSLSVSARARSSSEDKITVHFINRDGETLTTKGKVGDSLLDVVVENNLDIDGFGACEGTLACSTCHLIFEDHIYEKLDAITDEENDMLDLAYGLTDRSRLGCCICLTKSMDNMTVRVPETVADARQSIDVGKTS [Q153C], the “scaled log2 fold change” value reads like this: under setting [1], -0.163; under setting [2], -0.668.
As to MAAAGGARLLRAASAVLGGPAGRWLHHAGSRAGSSGLLRNRGPGGSAEASRSLSVSARARSSSEDKITVHFINRDGETLTTKGKVGDSLLDVVVENNLDIDGFGACEGTLACSTCHLIFEDHIYEKLDAITDEENDMLDLAYGLTDRSRLGCFICLTKSMDNMTVRVPETVADARQSIDVGKTS [Q153F], the “scaled log2 fold change” value stood at 0.595 under setting [1] and 0.361 under setting [2].
Regarding MAAAGGARLLRAASAVLGGPAGRWLHHAGSRAGSSGLLRNRGPGGSAEASRSLSVSARARSSSEDKITVHFINRDGETLTTKGKVGDSLLDVVVENNLDIDGFGACEGTLACSTCHLIFEDHIYEKLDAITDEENDMLDLAYGLTDRSRLGCKICLTKSMDNMTVRVPETVADARQSIDVGKTS [Q153K], the “scaled log2 fold change” value under setting [1] was 0.016 and the “scaled log2 fold change” value under setting [2] is 0.139.
For the variant MAAAGGARLLRAASAVLGGPAGRWLHHAGSRAGSSGLLRNRGPGGSAEASRSLSVSARARSSSEDKITVHFINRDGETLTTKGKVGDSLLDVVVENNLDIDGFGACEGTLACSTCHLIFEDHIYEKLDAITDEENDMLDLAYGLTDRSRLGCHICLTKSMDNMTVRVPETVADARQSIDVGKTS [Q153H], the “scaled log2 fold change” value is, setting by setting: under setting [1], 0.41; under setting [2], -0.0151.

The values above are taken from the supplement of paper PMC12855868.
